In patent US9549967B2, “Regulation of sodium channels by PLUNC proteins” (The University of North Carolina at Chapel Hill, priority 2009, dated 2017):

Target: T1, α and γ ENaC (Rattus norvegicus, UniProt P37089+P37091)
T1 construct: expressed in transfected cells; host or cells: Xenopus laevis oocytes (cRNA injection)
T1 sequence (P37089 1-698): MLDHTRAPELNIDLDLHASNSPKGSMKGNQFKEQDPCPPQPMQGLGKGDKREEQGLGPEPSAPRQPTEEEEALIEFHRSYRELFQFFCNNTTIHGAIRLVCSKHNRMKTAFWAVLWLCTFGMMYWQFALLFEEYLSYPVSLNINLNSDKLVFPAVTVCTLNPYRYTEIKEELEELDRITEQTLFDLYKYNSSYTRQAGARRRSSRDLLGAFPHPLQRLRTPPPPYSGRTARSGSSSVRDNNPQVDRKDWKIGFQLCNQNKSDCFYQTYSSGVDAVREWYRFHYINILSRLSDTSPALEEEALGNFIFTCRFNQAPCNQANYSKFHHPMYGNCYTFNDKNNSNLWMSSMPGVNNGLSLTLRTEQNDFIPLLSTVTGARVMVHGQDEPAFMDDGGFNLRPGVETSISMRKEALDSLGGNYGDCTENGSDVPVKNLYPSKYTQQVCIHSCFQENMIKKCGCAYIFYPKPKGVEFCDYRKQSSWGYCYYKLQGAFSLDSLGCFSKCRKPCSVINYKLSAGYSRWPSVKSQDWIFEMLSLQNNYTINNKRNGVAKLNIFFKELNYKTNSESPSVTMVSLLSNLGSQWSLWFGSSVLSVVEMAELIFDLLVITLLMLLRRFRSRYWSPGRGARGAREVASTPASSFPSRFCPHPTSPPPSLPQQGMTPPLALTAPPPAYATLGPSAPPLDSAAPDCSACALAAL
T1 sequence (P37090 1-638 partner): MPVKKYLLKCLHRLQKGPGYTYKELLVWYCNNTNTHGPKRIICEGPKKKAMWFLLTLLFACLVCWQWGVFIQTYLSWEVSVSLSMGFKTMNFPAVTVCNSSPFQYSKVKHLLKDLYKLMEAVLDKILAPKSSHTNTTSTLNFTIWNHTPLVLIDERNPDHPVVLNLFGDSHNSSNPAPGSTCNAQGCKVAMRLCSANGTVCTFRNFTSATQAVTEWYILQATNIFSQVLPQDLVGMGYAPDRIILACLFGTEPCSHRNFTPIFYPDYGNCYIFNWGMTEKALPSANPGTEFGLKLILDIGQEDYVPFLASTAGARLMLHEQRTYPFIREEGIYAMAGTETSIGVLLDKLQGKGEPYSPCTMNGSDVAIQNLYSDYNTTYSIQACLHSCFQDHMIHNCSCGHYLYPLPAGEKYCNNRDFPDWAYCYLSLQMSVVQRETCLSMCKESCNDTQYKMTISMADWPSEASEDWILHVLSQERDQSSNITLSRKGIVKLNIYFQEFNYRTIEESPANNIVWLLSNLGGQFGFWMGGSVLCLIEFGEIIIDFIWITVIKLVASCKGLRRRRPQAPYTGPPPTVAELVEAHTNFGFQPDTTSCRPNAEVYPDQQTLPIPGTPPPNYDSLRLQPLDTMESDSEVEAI
T1 sequence (P37091 1-650): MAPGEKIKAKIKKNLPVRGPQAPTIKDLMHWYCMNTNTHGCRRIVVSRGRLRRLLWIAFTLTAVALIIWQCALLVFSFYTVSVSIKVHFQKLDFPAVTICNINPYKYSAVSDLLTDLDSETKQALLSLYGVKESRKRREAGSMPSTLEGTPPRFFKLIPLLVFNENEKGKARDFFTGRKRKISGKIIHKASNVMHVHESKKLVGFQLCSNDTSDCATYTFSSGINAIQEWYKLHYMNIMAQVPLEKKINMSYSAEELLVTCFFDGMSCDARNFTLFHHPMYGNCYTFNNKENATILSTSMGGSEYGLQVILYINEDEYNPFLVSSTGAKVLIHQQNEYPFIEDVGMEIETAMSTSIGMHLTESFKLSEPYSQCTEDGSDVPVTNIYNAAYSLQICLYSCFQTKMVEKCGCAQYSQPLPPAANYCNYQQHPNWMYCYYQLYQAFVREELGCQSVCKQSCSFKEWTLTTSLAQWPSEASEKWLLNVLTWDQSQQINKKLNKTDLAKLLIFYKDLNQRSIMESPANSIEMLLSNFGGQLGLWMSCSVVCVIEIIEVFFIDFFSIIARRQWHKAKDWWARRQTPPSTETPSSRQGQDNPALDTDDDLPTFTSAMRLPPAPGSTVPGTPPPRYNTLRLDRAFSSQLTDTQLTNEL
Assay: ENaC cleavage by CAP2 in Xenopus oocytes (Western blot, V5 antibody)
Type: cell-based
Settings: αβγENaC, CAP2 and SPLUNC1 co-expressed in oocytes
Protocol: Western Blotting: Airway surface liquid collected as described above was also placed in protease-inhibitor cocktail (Roche) for Western blotting. The protein concentration was determined using the BCA Assay (Pierce). To obtain SPLUNC1 from Xenopus oocytes, oocytes were lysed in Laemmli buffer or oocyte media was directly sampled and placed in Laemmli buffer. Proteins were resolved using SDS-PAGE and transferred to a Polyvinylidene Fluoride (PVDF) membrane. The membrane was then probed using αSplunc1 or αV5 antibodies and a Donkey anti-Mouse HRP antibody (R&D). The blots were then incubated with ECL reagents (Pierce).
Co-Immunoprecipitation: Xenopus oocytes were injected with either HA-N-Terminus or V5-C-Terminus (HA-NT/V5-CT) tagged subunits in combination with wild type (WT) untagged rat αβγENaC subunits (0.3 ng cRNA each) with or without V5-tagged SPLUNC1 and CAP2 (1 ng cRNA each). After 24 h, 40 eggs per experimental condition were lysed with buffer containing (in mM): 20 Tris, 50 NaCl, 50 NaF, 10 β-glycerophosphate, 5 Na4P2O7 pyrophosphate, 1 EDTA, pH 7.5 and protease inhibitors (complete, Roche), aprotinin (Sigma). Cell lysates were prepared by passing the eggs through a 27 G1/2 needle twice and by centrifugation at 3,600 rpm for 10 minutes at 4° C. Supernatants were transferred to new tubes and samples were spun at 14,000 rpm for 20 minutes at 4° C. […]

B1: SPLUNC1: human SPLUNC1, 256 amino acid secreted PLUNC protein (SEQ ID NO:1); rSPLUNC1 = V5/6His-tagged protein purified from HEK293 media (protein, listed as Homo sapiens)
chain: MFQTGGLIVFYGLLAQTMAQFGGLPVPLDQTLPLNVNPALPLSPTGLAGSLTNALSNGLLSGGLLGILENLPLLDILKPGGGTSGGLLGGLLGKVTSVIPGLNNIIDIKVTDPQLLELGLVQSPDGHRLYVTIPLGIKLQVNTPLVGASLLRLAVKLDITAEILAVRDKQERIHLVLGDCTHSPGSLQISLLDGLGPLPIQGLLDSLTGILNKVLPELVQGNVCPLVNEVLRGLDITLVHDIVNMLIHGLQFVIKV
modifications: V5/6His tag
notes: rSPLUNC1 = V5/6His-tagged protein purified from HEK293 media
- α and γ ENaC cleavage by CAP2: only full-length α and γ ENaC subunits could be observed
